Reference: the DeepSol protein solubility set

Experiment: soluble on expression in E. coli; label from the status in PepcDB or PDB records

Sequence | soluble on expression in E. coli
MKVTLPEFERAGVMVVGDVMLDRYWYGPTSRISPEAPVPVVKVNTIEERPGGAANVAMNIASLGANARLVGLTGIDDAARALSKSLADVNVKCDFVSVPTHPTITKLRVLSRNQQLIRLDFEEGFEGVDPQPLHERINQALSSIGALVLSDYAKGALASVQQMIQLARKAGVPVLIDPKGTDFERYRGATLLTPNLSEFEAVVGKCKTEEEIVERGMKLIADYELSALLVTRSEQGMSLLQPGKAPLHMPTQAQEVYDVTGAGDTVIGVLAATLAAGNSLEEACFFANAAAGVVVGKLGTSTVSPIELENAVRGRADTGFGVMTEEELKLAVAAARKRGEKVVMTNGVFDILHAGHVSYLANARKLGDRLIVAVNSDASTKRLKGDSRPVNPLEQRMIVLGALEAVDWVVSFEEDTPQRLIAGILPDLLVKGGDYKPEEIAGSKEVWANGGEVLVLNFEDGCSTTNIIKKIQQDKKG | soluble
MKWAYKEENNFEKRRAEGDKIRRKYPDRIPVIVEKAPKSKLHDLDKKKYLVPSDLTVGQFYFLIRKRIQLRPEDALFFFVNNVIPQTMTTMGQLYQDHHEEDLFLYIAYSDESVYGGEVEKKE | not soluble
MKYIIIGLGNYGHVLAEELSALGHEIIGADISESRVDSIKDKVATAFVIDATDEQSLSVLPLNSVDIVVVAIGENFGASVRVVALLKQKKVPRIFARAIDAVHKAVLEAFSLEKILTPEEDAARSLVQLLDFGATMEAFRIDQDYYVVKFTVPKKFVGYFVNELNMDEEFHLKLIALKRANKVTNCLGISLMERHVKNELPGDEKVEEGDELVCYGKYRDFQSFWKAILEHHHHHH | soluble
MKYLAGIVTFNPNIERLDQNIRAIYPQVSHIYIVDNGSKNKEEISQLVADYNEEGHLTVDYLTENKGIAYALNCIGQFAVAQEFDWFLTLDQDSVVLGDLIDNYENYLHLPKVGMLSCLYQDMNRENLVMQEFDYKEIEECITSAALMKTSVFEETSGFAEEMFIDFVDSEMNYRLSEMGYKTYQVNFIGLLHEIGHSSRVKKFGHVFHVLNHSPFRKYYMIRNAIYIIKKYGKKKRYKYLVFMRNEFVRVLVAEEQKSKKIVAMIKGLKDGLLMKVDKYGKLEHHHHHH | soluble
MKYRDLRDFLAQLERQGELKRITAPVSTRLEMTEIADRVLRAGGPALLFENARHNDAPADMPVLANLFGTPRRVAWGMGADDVGALRETGELLASLREPEAPKGLRDALAKVSMLKAALWDMSPKTVRSAACQEIVWEGADVDLGRLPIQTCWPGDVAPLLAWGLVITRGPNARRQNLGIYRQQPLGPNKLIMRWLSHRGGALDFRDHAQAHPGKPFPIAVALGADPATILGAVTPVPDTLSEYQFAGLLRGSRTEVVKALGSDLSVPASAEIVLEGHLLPADDPRAVAAAVPEGANPPPATGYEMALEGPYGDHTGYYNEQDWFPVFTVDRITMRRNPIYHSTYTGKPPDEPAVLGVALNEVFVPLLRRQLPEIVDFYLPPEGCSYRLAVVSIRKQYAGHAKRVMFGLWSVLRQFMYTKFIVVVDEDIDPRDWTEVVWAMTTRMDPVRDTVLVENTPIDYLDFASPVSGLGGKMGLDATNKWPGETSREWGTPIHMDEAVKRRVDAMWDTLGLAAALEHHHHHH | not soluble
MKYTEIMVRYGELSTKGKNRKTFIMQLAQNVKRALADFPALKIHADRDRMHILLNGEDSEEVIPKLSKVFGIQNFSPSIRIEKEMPAIRAMVQEVVREVYTPGKTFKITAKRSDHSFELDSNGLNQELGGAVIEAIPEIQVQMKKPDINLRIEIRKDAAYLSYETIRGAGGLPVGTSGRGMLMLSGGIDSPVAGYLAMKRGVEVEAVHFASPPYTSEQALQKAKDLAEKLVPYVGTIQFIEVPFTEIQEEIKRVVPQGYLMTITRRLMLRLTDAIREMRKGLVIINGESLAQVASQTLQSMVAINEVTSTPIIRPVVSMDKTEIIEIAEKIDTFELAIQPFEDCCTIFAPPQPKTRPRLDKAQEYEARLDLEGLMARALEGLKITEISAETAKDKQEDEFADFL | not soluble
MKYVLDTSAIISRNINLLDGDLLFPSSVIGEIRKGKLKYMLDALFPMIRIVDPDQYYVRSVEDAAHKTGDLMNLSGTDIEVIAVAMQYGATIVTDDYSIQNVASALKIAFMNANIKSISKQISWVYRCTGCKKIFHEPVKVCDICGHNVKRHYDKKRSAVKKILEHHHHHH | not soluble
MLAFFRRFMSTTTVTAQPVLPWFRNVPLAPADPILGVTEAFKKDTNPNKINLGVGAYRDDQGKPFVLRAVREAEQQIIDAKMDKEYSTITGVPEFAPLAAKLAFGDNSEVIRDGRVFTTQSISGTGALRIGGQFVEKFIPSKTLFYPTPTWANHLPVFRNSGLSIQPYRYYNQETLGFDVEGALEDISKMPEGSVILLHACAHNPTGVDPTKEQWKKLSQVLKERKILPFFDMAYQGFASGDVDDDAFALRHFIEQGHNVLVAQSFAKNMGLYGERVGAFSIVCDSAEEAIRVGSQMRIIIRPMISMPPLHGARIASRILSNPELKKSWLEDVKLMADRIKSMRTALKDGLKAEGSTLNWDHITNQIGMFCFTGINEKQVQKLIKEHSVYLTNDGRISISGINTGNVAYLAKALHDVTK | not soluble
MLARVCERTPISTPAWTDTLTRLAPDASSVLARGPWTWKYALPPAVVGVAALAASSPWGVVGVALAAFVVWFHRDPDRSPNGAGVVVPADGTVSVIRTRDDGRVRVGVFMNVHNVHVNRVPVAGRVESVVHEPGGHRPAFSKESAHNERVRIETAEWTVVLIAGAFARRIHPYVEAGEDLARGDRLGHISFGSRADVVLPPAYDRGDVVVESGQTVRAGETVLARLEHHHHHH | soluble
MLASKMRWEIQRPDQDKVKSLTEQLHITPLVASLLVKRGFDTAESARLFLHTKDADFYDPFEMKGMKEAADRIKQAISQQEKIMIYGDYDADGVTSTSVMLHTLQKLSAQVDFYIPDRFKEGYGPNEQAFRSIKERGFSLIITVDTGIAAVHEAKVAKELGLDVIITDHHEPGPELPDVRAIVHPKQPGCTYPFKELAGVGVAFKLAHALLGELPDELLDLAAIGTIADLVPLHDENRLIATLGLERLRRTNRLGLKELIKLSGGDIGEANEETVGFQLAPRLNAVGRIEQADPAVHLLMSEDSFEAEELAAEIDQLNKERQKMVSKMTDEAIEMVEQQGLDQTAIVVAKAGWNPGVVGIVASKLVDRFYRPAIVLGIDEEKGIAKGSARSIRGFNLFESLSECRDILPHFGGHPMAAGMTLKAEDVPDLRSRLNEIADNTLTEEDFIPVQEVDLVCGVEDITVESIAEMNMLSPFGMLNPKPHVLVENAVLEDVRKIGANKTHVKMTIRNESSQLDCVGFNKGELQEGIVPGSRISIVGEMSINEWNNRKKPQLMIKDAAVSEWQLFDLRGKRTWEDTVSALPSAKRAIVSFKEDSTTLLQTEDLRREVHVISSKDQAKAFDLDGAYIVLLDPPPSLDMLARLLEGKAPERIYFIFLNHEDHFLSTFPARDHFKWYYAFLLKRGAFDVKKHGSELAKHKGWSVETINFMTKVFFDLGFVKIENGVLSVVSGAKKRDLTDSQTYQAKQQLMELDQKLNYSSAEELKEWLNKLMKQDSEAYESTRR | not soluble
MLATPGRFFEKFQKMDKVYRRFYQHELAEYQFTPNEIAVILFLYNNAPDLDTATDIVRCKGISKGLVARSVDSLCREGYLTAVREPADRRIMHLKLSEKSRPITERIAVKQKELAGKIECGITPEELRITSATLDKLLINTEQLLKGKENHAE | soluble
MLDIKFLRTNFEEVKAKLQHRGEDLTDFGRFEELDTRRRELLVQTEELKSKRNEVSQQISVLKREKKDAEALILEMREVGEKVKDLDNELRTVEEDLERLMLSIPNIPHESAPVGETEDDNVVARTWGEVKEFAFEPKPHWDLATDLGILDFERAGKVTGSRFVFYKGAGARLERALISFMLDLHTDEHGYEEVLPPYMVNRASMTGTGQLPKFEEDAFRIESEDYFLIPTAEVPVTNMHRDEILNKEQLPIRYAAFSSCFRSEAGSAGRDTRGLIRQHQFNKVELVKFVKPEDSYEELEKLTNDAERVLQLLELPYRVMSMCTGDLGFTAAKKYDIEVWIPSYGTYREISSCSNFEAFQARRANIRFRREPNGKPEHVHTLNGSGLAIGRTVAAILENYQQEDGTIIIPEVLRPYMGGKTVIK | soluble
MLDMELESFLSMEKQGDISDAFLSAVKAEMQQMVLYAAGLAVRNIEETNRLRQKAKELYFYYLERYSPLAEMYKGSEMSLHNAGTATLRGHKNLAGGKRIDIGLWDGSKEFFHEYCYLPDDVQIRLFISKIQLLHFVVGAITTPQYVEKVALLGKVVGSSRYLELLRSFIDLNDPSGKNYSRGLFFYDHKFDKLEEVGKEVGENLPEVIKRFFPDKWVLVDVWATWCSPCKKEFGYNKQLHAFLEEKGIAMLYCSVDEPENSDNWRNNLSAFGLTGYHYYITSKAEKELLKIPDFRMLIPRYLLFDNKGKLVHANLPRPSSEKALYEEIEKLMQGN | not soluble
MLEEYRKHVAERAAEGIAPKPLDANQMAALVELLKNPPAGEEEFLLDLLTNRVPPGVDEAAYVKAGFLAAIAKGEAKSPLLTPEKAIELLGTMQGGYNIHPLIDALDDAKLAPIAAKALSHTLLMFDNFYDVEEKAKAGNEYAKQVMQSWADAEWFLNRPALAEKLTVTVFKVTGETNTDDLSPAPDAWSRPDIPLHALAMLKNAREGIEPDQPGVVGPIKQIEALQQKGFPLAYVGDVVGTGSSRKSATNSVLWFMGDDIPHVPNKRGGGLCLGGKIAPIFFNTMEDAGALPIEVDVSNLNMGDVIDVYPYKGEVRNHETGELLATFELKTDVLIDEVRAGGRIPLIIGRGLTTKAREALGLPHSDVFRQAKDVAESDRGFSLAQKMVGRACGVKGIRPGAYCEPKMTSVGSQDTTGPMTRDELKDLACLGFSADLVMQSFCHTAAYPKPVDVNTHHTLPDFIMNRGGVSLRPGDGVIHSWLNRMLLPDTVGTGGDSHTRFPIGISFPAGSGLVAFAAATGVMPLDMPESVLVRFKGKMQPGITLRDLVHAIPLYAIKQGLLTVEKKGKKNIFSGRILEIEGLPDLKVEQAFELTDASAERSAAGCTIKLNKEPIIEYLNSNIVLLKWMIAEGYGDRRTLERRIQGMEKWLANPELLEADADAEYAAVIDIDLADIKEPILCAPNDPDDARPLSAVQGEKIDEVFIGSCMTNIGHFRAAGKLLDAHKGQLPTRLWVAPPTRMDAAQLTEEGYYSVFGKSGARIEIPGCSLCMGNQARVADGATVVSTSTRNFPNRLGTGANVFLASAELAAVAALIGKLPTPEEYQTYVAQVDKTAVDTYRYLNFNQLSQYTEKADGVIFQTAV | soluble
MLEHLIKISRRNWSSLKVIILAGGRGKRITLFKPFLVVCGKPLISWAFDAVNKLSDKVYLGINQSHPLFTIFKHSIFKIFPTPDISYENDVKYVVESLGPPILVLPVDIAFINNNIINNLIERCAVDMCTLKSYGSYLGVTYWTGLNFSNYTDIEVKEKLYNINTWEDYIKANKECNILLEHHHHHH | soluble
MLEILYQDEWLVAVNKPSGWLVHRSWLDRDEKVVVMQTVRDQIGQHVFTAHRLDRPTSGVLLMGLSSEAGRLLAQQFEQHQIQKRYHAIVRGWLMEEAVLDYPLVEELDKIADKFAREDKGPQPAVTHYRGLATVEMPVATGRYPTTRYGLVELEPKTGRKHQLRRHLAHLRHPIIGDSKHGDLRQNRSGAEHFGLQRLMLHASQLSLTHPFTGEPLTIHAGLDDTWMQALSQFGWRGLLPENERVEFSAPSGQDGEISSLEHHHHHH | not soluble
MLEKELSFADLSISLSELYEAMGYADAVPDEAVEKEVRGVLGRVEAVTSPRFCFFISGGELDESKDSLSVGDTCFSIGKIITRQLRGSESFAFFAATAGTGFERFQHTLQQEGDMVKVYIADAIGSVIAEKTADCMEIALDEYIRDRGWRHTNRFSPGYCGWHVSEQKKLFPLFPSAEPCGIRLTDSGLMLPIKSVSGVIGLGDGVRKLEYTCGLCTYDRCYRRKQRGLEHHHHHH | soluble
MLEKNPTLEKLLKSLEDIQAIDIKIIDVHKQTTITDFMVVTSGRSSRHVKSIAQKVLEDMKVAGLPCLSSTGIEHGDWALIDFGDIILHVMQPEFRHFYNLEGLWEEHPGNSLEHHHHHH | not soluble
